We go through 2 molecules from patent publication US20220412967A1, “METHOD FOR CAPTURING CANDIDATE SUBSTANCE THAT CAN BIND TO COMPLEX OF MR1 PROTEIN AND BETA2 MICROGLOBULIN PROTEIN, METHOD FOR PRODUCING CANDIDATE SUBSTANCE THAT CAN BIND TO COMPLEX OF MR1 PROTEIN AND BETA2 MICROGLOBULIN PROTEIN, AND METHOD FOR PRODUCING LIGAND CANDIDATE SUBSTANCE FOR MAIT CELL” (OSAKA UNIVERSITY, priority 2019, published 2022).

The target of data set [1] is T1, complex of soluble mMR1A, soluble mβ2m and Ac6FP (Mus musculus, UniProt Q8HWB0).
T1 construct: made in house
The experiment in a line: Thermodynamic stability of the complex (Tycho NT.6, F350/F330, 37 to 95° C.). It counts as physicochemical. The note with it: for melting point (inflection point of curve) of the complex: FIG. 1B. The text has this:
When a MR1 protein, a β2 protein, and Ac6FP form a complex to form a normal folding, tryptophan in the protein can be measured at an absorbance of 330 nm. On the other hand, when the complex is heat treated and the complex is denatured, tryptophan in the protein is exposed by the thermal denaturation, and the tryptophan can be measured at an absorbance of 350 nm.
After mixing the soluble mMR1A and the soluble mβ2m obtained in Example 1 (1), Ac6FP (Cat. No.: 11.418, manufactured by Schircks Laboratories Co., Ltd.) was further added to the obtained mixed solution to form the complex in a buffer solution (reaction system of complex). The composition of the buffer was as follows: 100 mmol/l Tris-HCl (pH 8.1), 2 mmol/l EDTA (pH 8.1), 400 mmol/l L-Arginine, and 5 mol/1 Urea, and the pH was set to 8.1. In the reaction system of 250 ml of complex, the concentration of the soluble mMR1A was 30 μg/ml (total amount: 7.5 mg), the concentration of the soluble mβ2m was 30 μg/ml (total amount: 7.5 mg), and the concentration of Ac6FP was 8 μg/ml (total amount: 2 mg). The reaction temperature of the reaction system of the complex was set at 4° C., and the reaction time was set at 9 hours.
Sodium cyanoborohydride (NaBH3CN) was added to the obtained complex (0.01 mg/ml), so as to have a predetermined concentration (0, 0.005, 0.05, 0.5, or 5 mmol/1) and subjected to the reduction treatment at 4° C. for 5 minutes. Note that the pH in the reaction solution of the reduction reaction was set to about 7.2.
8 to 10 μl of a sample containing the complex after the reduction treatment was collected in a capillary and set to Tycho™ NT.6. The temperature was then increased to 37 to 95° C., and the thermodynamic stability of the complex was calculated from the melting point (an inflection point of curve).
FIGS. 1A and 1B are graphs of the thermodynamic stability of the complex. In FIGS. 1A and 1B, the horizontal axis indicates the temperature, and the vertical axis indicates the ratio of the absorbance at 350 nm (F350) to the absorbance at 330 nm (F330) (F350/F330). […]

The target in data set [2] is T2, soluble murine MR1 protein isoform A (mouse, UniProt Q8HWB0 19-288).
T2 construct: also called soluble mMR1A; mMR1
Briefly: refolding of E. coli proteins with the small-molecule ligand Ac6FP; complex then purified by anion exchange and gel filtration chromatography. As to the method: After the dialysis, the obtained sample was subjected to anion exchange chromatography under the purification condition 1 below to purify a crude purified product including the complex. After the start of the purification, the resultant was fractionated at 1 ml/fraction, and five fractions between 6 to 7 minutes from the start of purification were collected as fractions of the crude purified product.
Analytical instrument: AKTA pure25 (manufactured by GE Healthcare) Column: POROS™ HQ (manufactured by Applied Biosystems) [0108] […] 0 min: (A:B=100:0) [0111] 7.9 min: (A:B=50:50) Flow rate: 5 ml/min Fractionation volume: 1 ml/fraction
The obtained composition was then subjected to gel filtration chromatography under the purification condition 2 below to purify the complex from the crude purified product. After the start of the purification, the resultant was fractionated at 0.5 ml/fraction, and 4 fractions between 13 and 15 minutes from the start of purification were collected as a fraction containing the complex.
For orientation: Size exclusion chromatography separates by hydrodynamic size, large species first.

T1 sequence (Q8HWB0 19-288, one chain of several): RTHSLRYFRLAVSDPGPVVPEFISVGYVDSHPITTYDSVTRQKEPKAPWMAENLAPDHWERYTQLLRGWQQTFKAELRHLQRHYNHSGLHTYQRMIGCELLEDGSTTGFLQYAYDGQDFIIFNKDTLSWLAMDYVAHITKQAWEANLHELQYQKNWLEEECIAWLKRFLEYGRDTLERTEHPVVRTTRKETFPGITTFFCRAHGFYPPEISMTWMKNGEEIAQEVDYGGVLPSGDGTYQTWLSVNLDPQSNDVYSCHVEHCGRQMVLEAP
T2 sequence (Q8HWB0 19-288): as the sequence (Q8HWB0 19-288, one chain of several) above

With “complex: complex formed from soluble mMR1A (SEQ ID NO: 10), soluble mβ2m (SEQ ID NO: 14) and the ligand Ac6FP”, the “melting point (inflection point of curve) of the complex” value in data set [1] (control not subjected to the reduction treatment (0 mmol/l NaBH3CN)) came out at 72.2 °C; in data set [1] (treated with 5 mmol/l of sodium cyanoborohydride, 4° C., 5 minutes, pH about 7.2), 73.9 °C. For the same molecule, the “melting point of the complex versus control not subjected to the reduction treatment” value in data set [1] (reduction treatment with NaBH3CN (0.005 to 5 mmol/l), FIG. 1A) is listed as “increased”.

B1: soluble mouse β2 microglobulin protein (other)
b2m: IQKTPQIQVYSRHPPENGKPNILNCYVTQFHPPHIEIQMLKNGKKIPKVEMSDMSFSKDWSFYILAHTEFTPTETDTYACRVKHASMAEPKTVYWDRDM
notes: Recombinant from Escherichia coli; also called soluble mβ2m
Regarding B1, in data set [2], the binding result was “binds”.
